From patent publication US20140087995A1 (published 2014)
Numbered stars: 1 amine (or outer) side, 2 acyl side, 3 side chain; on linkers, the order of the positions; unused ones are H or OH. Bridge positions count the residues as written; N and C are the ends. * marks the point of attachment. C20 diacid = O=C(O)CCCCCCCCCCCCCCCCCCC(=O)*; γGlu = O=C(O)[C@H](CCC(=O)[*:2])N[*:1]; AEEA = NCCOCCOCC(=O)O

T1: human calcitonin receptor (human, UniProt P30988 25-474)
T1 construct: whole, on cells; also called hCTR; hCT
T1 sequence (looked up): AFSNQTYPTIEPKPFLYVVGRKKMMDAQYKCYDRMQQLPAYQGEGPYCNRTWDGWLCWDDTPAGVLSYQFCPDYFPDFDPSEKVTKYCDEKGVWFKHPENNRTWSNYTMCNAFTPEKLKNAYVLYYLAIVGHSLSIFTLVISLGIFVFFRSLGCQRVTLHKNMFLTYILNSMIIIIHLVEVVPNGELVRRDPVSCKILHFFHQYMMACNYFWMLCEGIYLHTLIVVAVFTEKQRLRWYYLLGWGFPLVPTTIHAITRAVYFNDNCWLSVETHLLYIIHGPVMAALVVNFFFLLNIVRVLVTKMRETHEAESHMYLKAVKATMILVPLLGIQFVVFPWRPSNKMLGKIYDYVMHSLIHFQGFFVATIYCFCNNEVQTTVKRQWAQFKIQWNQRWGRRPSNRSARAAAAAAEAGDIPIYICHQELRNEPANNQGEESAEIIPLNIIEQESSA


Tests used:
[1] = target: T1, human calcitonin receptor; experiment: ratio of IC50 at hCTR to IC50 at the human amylin receptor (reference)
Description: The resulting pellet was resuspended, homogenized and centrifuged (20.000 rpm, 15 min) in a buffer containing 20 mM Na-HEPES and 0.1 mM EDTA (pH 7.4, buffer 2). The resulting pellet was resuspended in buffer 2 and protein concentration was measured (BCA protein Assay, Pierce). The homogenate was kept cold during the whole procedure. The membranes were kept at −80° C. until use. The assay was performed in a 384 well Optiplate (PerkinElmer) in a total volume of 40 ul. Membranes were mixed with SPA beads. Final concentration of membranes 35 ng/μL final and SPA beads was 0.05 mg/well. Test-compounds were dissolved in DMSO and further diluted in assay buffer (50 mM Hepes, pH 7.4, 1 mM CaCl2, 5 mM MgCl₂, 0.1% OA and 0.02% Tween20). […] The final mixture was incubated with shaking at 400 rpm for 120 min at 25° C. prior to centrifugation (1500 rpm, 10 min). Samples were analyzed on TopCounter™ (Packard). The IC₅₀ was calculated using (one site binding competition analysis) GraphPad Prism5 as a measure of receptor affinity.
Membranes were prepared in the following way; the cells were rinsed with PBS and incubated with Versene for approximately 5 min before harvesting. The cells were flushed with PBS and the cell-suspension was centrifuged for 5 min at 1000 rpm. Cells were homogenized (Ultrathurrax) in a buffer containing 20 mM Na-HEPES and 10 mM EDTA (pH 7.4) and centrifuged at 20.000 rpm for 15 min. The resulting pellet was resuspended, homogenized and centrifuged (20.000 rpm, 15 min) in a buffer containing 20 mM Na-HEPES and 0.1 mM EDTA (pH 7.4, buffer 2). The resulting pellet was resuspended in buffer 2 and protein concentration was measured (BCA protein Assay, Pierce). The homogenate was kept cold during the whole procedure. The membranes were kept at −80° C. until use. Assay was performed in a 384 well Optiplate (PerkinElmer) in a total volume of 40 ul. Membranes were mixed with SPA beads.

[2] = target: T1, human calcitonin receptor; experiment: SPA competition binding, membranes with human calcitonin receptor, displacement of 125I-calcitonin (Assay VII)
Description: Membranes were prepared in the following way; the cells were rinsed with PBS and incubated with Versene for approximately 5 min before harvesting. The cells were flushed with PBS and the cell-suspension was centrifuged for 5 min at 1000 rpm. Cells were homogenized (Ultrathurrax) in a buffer containing 20 mM Na-HEPES and 10 mM EDTA (pH 7.4) and centrifuged at 20.000 rpm for 15 min. The resulting pellet was resuspended, homogenized and centrifuged (20.000 rpm, 15 min) in a buffer containing 20 mM Na-HEPES and 0.1 mM EDTA (pH 7.4, buffer 2). The resulting pellet was resuspended in buffer 2 and protein concentration was measured (BCA protein Assay, Pierce). The homogenate was kept cold during the whole procedure. The membranes were kept at −80° C. until use. Assay was performed in a 384 well Optiplate (PerkinElmer) in a total volume of 40 ul. Membranes were mixed with SPA beads. Final concentration of membranes 35 ng/μL final and Final concentration of SPA beads was 0.05 mg/well. Test-compounds were dissolved in DMSO and further diluted in assay buffer (50 mM Hepes, pH 7.4, 1 mM CaCl2, 5 mM MgCl₂, 0.1% OA and 0.02% Tween20). […] The final mixture was incubated for 120 min with shaking at 400 rpm at 25° C. prior to centrifugation (1500 rpm, 10 min). Samples were analyzed on TopCounter™ (Packard). The […] was calculated using (one site binding competition analysis) GraphPad Prism5 as a measure of receptor affinity.

Ratio hCT/hAmylin binding [1]	IC50 [2] [nM]	Binder
8	1.14	KCNTATCATQRLAEFLRHSSPNFGAIPSSTNVGSNTY (C20 diacid-gGlu on the alpha amino group of the N-terminal residue; disulfide bridge Cys2-Cys7; C-terminal amide, also called compound 9) [N^α1-[(4S)-4-carboxy-4-(19-carboxynonadecanoylamino)butanoyl]-[Glu14,Arg17,Pro21,Pro27]-h-amylin]
29	19.3	KCNTATCATQRLANFLRHSSPNFGAIPSSTNVGRNTY (C20 diacid-gGlu on the alpha amino group of the N-terminal residue; disulfide bridge Cys2-Cys7; C-terminal amide, also called compound 39) [N^α1-[(4S)-4-carboxy-4-(19-carboxynonadecanoylamino)butanoyl]-[Arg17,Pro21,Pro27,Arg34]-h-amylin]
20.5	12.5	{C20 diacid-γGlu}-KCNTATCATQRLANFLRHSSPNFGAIPSSTPVGSETY-NH2 (disulfide 2-7; SMILES CC[C@H](C)[C@H](NC(=O)[C@H](C)NC(=O)CNC(=O)[C@H](Cc1ccccc1)NC(=O)[C@H](CC(N)=O)NC(=O)[C@@H]1CCCN1C(=O)[C@H](CO)NC(=O)[C@H](CO)NC(=O)[C@H](Cc1c[nH]cn1)NC(=O)[C@H](CCCNC(=N)N)NC(=O)[C@H](CC(C)C)NC(=O)[C@H](Cc1ccccc1)NC(=O)[C@H](CC(N)=O)NC(=O)[C@H](C)NC(=O)[C@H](CC(C)C)NC(=O)[C@H](CCCNC(=N)N)NC(=O)[C@H](CCC(N)=O)NC(=O)[C@@H](NC(=O)[C@H](C)NC(=O)[C@@H]1CSSC[C@H](NC(=O)[C@H](CCCCN)NC(=O)CC[C@H](NC(=O)CCCCCCCCCCCCCCCCCCC(=O)O)C(=O)O)C(=O)N[C@@H](CC(N)=O)C(=O)N[C@@H]([C@@H](C)O)C(=O)N[C@@H](C)C(=O)N[C@@H]([C@@H](C)O)C(=O)N1)[C@@H](C)O)C(=O)N1CCC[C@H]1C(=O)N[C@@H](CO)C(=O)N[C@@H](CO)C(=O)N[C@H](C(=O)N1CCC[C@H]1C(=O)N[C@H](C(=O)NCC(=O)N[C@@H](CO)C(=O)N[C@@H](CCC(=O)O)C(=O)N[C@H](C(=O)N[C@@H](Cc1ccc(O)cc1)C(N)=O)[C@@H](C)O)C(C)C)[C@@H](C)O, also called compound 28)
25	21.8	KCNTATCATQRLANFLRHSSPNFGAIPSSTNVGSETY (C20 diacid-gGlu on the alpha amino group of the N-terminal residue; disulfide bridge Cys2-Cys7; C-terminal amide, also called compound 23) [N^α1-[(4S)-4-carboxy-4-(19-carboxynonadecanoylamino)butanoyl]-[Arg17,Pro21,Pro27,Glu35]-h-amylin]
31.1	17.1	KCNTATCATQRLANFLRHSSPNFGAIPSSTNVGHNTY (C20 diacid-gGlu on the alpha amino group of the N-terminal residue; disulfide bridge Cys2-Cys7; C-terminal amide, also called compound 40) [N^α1-[(4S)-4-carboxy-4-(19-carboxynonadecanoylamino)butanoyl]-[Arg17,Pro21,Pro27,His34]-h-amylin]
3.6	0.787	{C20 diacid-γGlu-AEEA-AEEA}-KCNTATCATQRLAEFLRHSSPNFGAIPSSTNVGSNTP-NH2 (disulfide 2-7; SMILES CC[C@H](C)[C@H](NC(=O)[C@H](C)NC(=O)CNC(=O)[C@H](Cc1ccccc1)NC(=O)[C@H](CC(N)=O)NC(=O)[C@@H]1CCCN1C(=O)[C@H](CO)NC(=O)[C@H](CO)NC(=O)[C@H](Cc1c[nH]cn1)NC(=O)[C@H](CCCNC(=N)N)NC(=O)[C@H](CC(C)C)NC(=O)[C@H](Cc1ccccc1)NC(=O)[C@H](CCC(=O)O)NC(=O)[C@H](C)NC(=O)[C@H](CC(C)C)NC(=O)[C@H](CCCNC(=N)N)NC(=O)[C@H](CCC(N)=O)NC(=O)[C@@H](NC(=O)[C@H](C)NC(=O)[C@@H]1CSSC[C@H](NC(=O)[C@H](CCCCN)NC(=O)COCCOCCNC(=O)COCCOCCNC(=O)CC[C@H](NC(=O)CCCCCCCCCCCCCCCCCCC(=O)O)C(=O)O)C(=O)N[C@@H](CC(N)=O)C(=O)N[C@@H]([C@@H](C)O)C(=O)N[C@@H](C)C(=O)N[C@@H]([C@@H](C)O)C(=O)N1)[C@@H](C)O)C(=O)N1CCC[C@H]1C(=O)N[C@@H](CO)C(=O)N[C@@H](CO)C(=O)N[C@H](C(=O)N[C@@H](CC(N)=O)C(=O)N[C@H](C(=O)NCC(=O)N[C@@H](CO)C(=O)N[C@@H](CC(N)=O)C(=O)N[C@H](C(=O)N1CCC[C@H]1C(N)=O)[C@@H](C)O)C(C)C)[C@@H](C)O, also called compound 20)
